Data: article PMC3977929, “Affinity- and Specificity-Enhancing Mutations Are Frequent in Multispecific Interactions between TIMP2 and MMPs” (PLoS ONE, 2014)
Positions count from the first letter of the chain named. Names may count otherwise.

B1: N-TIMP2 WT (N-terminal domain of Tissue Inhibitor of Metalloproteinases 2, residues 1-127) (domain or fragment, human, UniProt P16035 27-153, looked up)
chain: CSCSPVHPQQAFCNADVVIRAKAVSEKEVDSGNDIYGNPIKRIQYEIKQIKMFKGPEKDIEFIYTAPSSAVCGVSLDVGGKKEYLIAGKAEGDGKMHITLCDFIVPWDTLSTTQKKSLNHRYQMGCE
notes: Monomeric fraction used; also called WT N-TIMP2
B2: N-TIMP2 H97R (domain or fragment, human, UniProt P16035 27-153, looked up)
chain: B1 chain with H97R
notes: TIMP2, human, N-terminal domain, residues 1-127
B3: N-TIMP2 S4Q (domain or fragment, human, UniProt P16035 27-153, looked up)
chain: B1 chain with S4Q
notes: TIMP2, human, N-terminal domain, residues 1-127; also called S04Q
B4: N-TIMP2 S4A (domain or fragment, human, UniProt P16035 27-153, looked up)
chain: B1 chain with S4A
notes: as for B2
B5: N-TIMP2 I35E (domain or fragment, human, UniProt P16035 27-153, looked up)
chain: B1 chain with I35E
notes: as for B2
B6: N-TIMP2 I35K (domain or fragment, human, UniProt P16035 27-153, looked up)
chain: B1 chain with I35K
notes: as for B2
B7: N-TIMP2 V71N (domain or fragment, human, UniProt P16035 27-153, looked up)
chain: B1 chain with V71N
notes: as for B2
B8: N-TIMP2 S4E (domain or fragment, human, UniProt P16035 27-153, looked up)
chain: B1 chain with S4E
notes: TIMP2, human, N-terminal domain, residues 1-127; also called S04E
B9: N-TIMP2 S68Y (domain or fragment, human, UniProt P16035 27-153, looked up)
chain: B1 chain with S68Y
notes: as for B2
B10: N-TIMP2 N38Q (domain or fragment, human, UniProt P16035 27-153, looked up)
chain: B1 chain with N38Q
notes: as for B2
B11: N-TIMP2 V6R (domain or fragment, human, UniProt P16035 27-153, looked up)
chain: B1 chain with V6R
notes: TIMP2, human, N-terminal domain, residues 1-127; also called V06R
B12: N-TIMP2 T99Y (domain or fragment, human, UniProt P16035 27-153, looked up)
chain: B1 chain with T99Y
notes: as for B2
B13: N-TIMP2 S4R (domain or fragment, human, UniProt P16035 27-153, looked up)
chain: B1 chain with S4R
notes: TIMP2, human, N-terminal domain, residues 1-127; also called S04R
B14: N-TIMP2 S68W (domain or fragment, human, UniProt P16035 27-153, looked up)
chain: B1 chain with S68W
notes: as for B2

The binders below were run against T1, MMP14 catalytic domain (UniProt P50281 112-285) (assay: enzyme activity (inhibition) assay with a fluorogenic substrate; various concentrations of N-TIMP2 pre-incubated 1 hour with MMP9 (0.2 nM) or MMP14 (0.5 nM) in 50 mM Tris-HCl, 0.15 M NaCl, 10 mM CaCl2, 0.02% Brij 35, pH 7.5, 37°C; fraction of enzyme activity fitted to a 1:1 binding model to give Kd). Conditions: both partners purified.
T1 construct: Matrix Metalloproteinase 14 (MMP14), catalytic domain; source: expressed recombinantly and purified as published before [12]
A Kd of 4.5 nM was found for B1 in this work. A Kd of 0.32 nM was found for B2 in this work. A Kd of 1.9 nM was found for B3 in this work. A Kd of 1.4 nM was found for B4 in this work. A Kd of 5.4 nM was found for B5 in this work. A Kd of 0.38 nM was found for B6 in this work. A Kd of 6.5 nM was found for B7 in this work. A Kd of 9.5 nM was found for B8 in this work. A Kd of 1.1 nM was found for B9 in this work. A Kd of 3.4 nM was found for B10 in this work. A Kd of 1.3 nM was found for B11 in this work. A Kd of 1.05 nM was found for B12 in this work. A Kd of 2.7 nM was found for B13 in this work. A Kd of 0.91 nM was found for B14 in this work.

Each binder was assayed against T2, MMP9 catalytic domain (UniProt P14780 107-444) in the same assay as above. Conditions: both partners purified.
T2 construct: Matrix Metalloproteinase 9 (MMP9), catalytic domain; source: expressed recombinantly and purified as published before [12]
T2 sequence (P14780 107-444): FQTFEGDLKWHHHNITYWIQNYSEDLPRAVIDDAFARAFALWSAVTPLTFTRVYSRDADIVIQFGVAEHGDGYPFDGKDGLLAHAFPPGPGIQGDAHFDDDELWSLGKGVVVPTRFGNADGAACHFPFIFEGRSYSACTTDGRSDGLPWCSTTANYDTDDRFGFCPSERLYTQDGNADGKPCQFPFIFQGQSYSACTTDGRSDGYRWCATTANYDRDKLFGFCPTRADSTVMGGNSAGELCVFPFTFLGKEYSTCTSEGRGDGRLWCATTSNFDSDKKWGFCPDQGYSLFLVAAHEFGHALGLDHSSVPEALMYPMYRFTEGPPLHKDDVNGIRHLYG
A Kd of 0.9 nM was found for B1 in this work. A Kd of 0.5 nM was found for B2 in this work. A Kd of 1.39 nM was found for B3 in this work. A Kd of 0.85 nM was found for B4 in this work. A Kd of 2.5 nM was found for B5 in this work. A Kd of 0.58 nM was found for B6 in this work. A Kd of 4.68 nM was found for B7 in this work. A Kd of 15.5 nM was found for B8 in this work. A Kd of 0.8 nM was found for B9 in this work. A Kd of 2.4 nM was found for B10 in this work. A Kd of 0.5 nM was found for B11 in this work. A Kd of 1.1 nM was found for B12 in this work. A Kd of 0.55 nM was found for B13 in this work. A Kd of 0.37 nM was found for B14 in this work.
